Values quoted from earlier work as cited in PMC8384639.

Biological target: Histone H3 K4me3 peptide 1-15 (Homo sapiens) (UniProt P68431)

Kd: 2700 nM
Substance: BPTF PHD (from UniProt Q12830)
